Assay results as given in patent US9320770B2, “Blood vessel maturation, normalization or stabilization agent and wrinkle preventer/improver” (Shiseido Company, Ltd., priority 2008, dated 2016).
Each block holds one molecule with its values, some of them ahead of it.

Experiments:
Assay type in all cases: cell-based
[1] = system: Normal human umbilical vein endothelial cells and normal human dermal fibroblasts; assay: Evaluation of angiogenesis inhibitory action (angiogenesis kit, lumen formation in the presence of VEGF-A)
Procedure: Evaluation of Angiogenesis Inhibitory Action
A test was conducted for confirming the angiogenesis inhibitory action of cinnamon bark hot water extract.
Normal human umbilical vein endothelial cells and normal human dermal fibroblasts were co-cultured at a constant ratio using an angiogenesis kit (Kurabo Industries) and prepared in the growth state of the initial stage of lumen formation. The cells were incubated (under conditions of 37° C. and 5% CO2) after adding medium containing a prescribed concentration of cinnamon bark hot water extract in the presence of 10 ng/ml of vascular endothelial cell growth factor A (VEGF-A, Kurabo Industries). […] The stained images obtained from each well were then photographed (FIG. 4), and the images were analyzed using the length and surface area of lumen formation as indicators to evaluate angiogenesis inhibitory action (FIGS. 5 and 6). Image analysis for the length of lumen formation and image analysis for surface area were respectively carried out using angiogenesis quantification software (Kurabo Industries). […] Moreover, angiogenesis inhibitory action in the presence of VGF-A was also evaluated for Ang-1, which is known to have an action that is responsible for vascular stabilization.

full-length murine TIE2 = molecular target: T1, full-length murine TIE2 (Mus musculus, UniProt Q02858); assay: Tie-2 phosphorylation evaluation in Baf3 cells (BaF/TIE2), Western blotting; details: extracts 100 ppm, Angiopoietin-1 0.5 ppm, 10 minutes, FIG. 1 and 2
T1 construct: Ba/F3 transduced with full-length murine TIE2(BaF/TIE2); expressed in transfected cells; host or cells: Ba/F3 (murine pro-B cell line)
Procedure: Tie-2 Phosphorylation Evaluation Method
(§1) Baf3 cells, a murine pro-B cell line, Ba/F3 transduced with full-length murine TIE2(BaF/TIE2) were incubated in RPMI 1640 medium in the presence of IL-3 (Biosource, PMC0034) and 10% FCS. The cells were plated into a 6-well plate at 2×10^6 cells/1.5 mL/well and incubated overnight while omitting the FCS starting on the day before cell stimulation. DMSO solutions of the aforementioned hot water extract dry residues, Angiopoietin-1 (R&D System, 932-AN) as a positive control or DMSO as a negative control were added to the wells at a final concentration of 100 ppm, 0.5 ppm and 1000 ppm, respectively, followed by incubating for 10 minutes, cooling the cells on ice and washing with chilled PBS. The cells were then ultrasonically homogenized in RIPA buffer containing protease inhibitors (leupeptin, aprotinin, pepstatin, PMSF, Na3VO4). Sample buffer (0.2 M Tris-HCl (pH 6.8), 4% SDS, 20% glycerol, 5 mM EDTA, 0.01% BPB) was then added followed by carrying out SDS-PAGE (7.5% polyacrylamide gel, 12 wells, NPU-7.5L, Atto Corp.) under the conditions indicated below.
Gel: 7.5% acrylamide gel (NPU-7.5L, Atto Corp.)
Phoresis conditions: 40 mA (75 minutes, 2 gel sheets) […]
(§2) Next, Western blotting (20 V, 4° C., overnight) was carried out for transcription to a PVDF membrane. […] Protein bands were detected by chemiluminescence detection (ECL).

Tie-2 = molecular target: T2, Tie-2 (Homo sapiens, UniProt Q02763); assay: Tie-2 phosphorylation evaluation in HUVEC; details: evaluated in the same manner as Baf3 cells, FIG. 3
T2 construct: Tie-2 phosphorylation was similarly evaluated using normal human umbilical vein endothelial cells (HUVEC); endogenous in cells; host or cells: HUVEC (normal human umbilical vein endothelial cells)
Procedure: as §1, §2
2) Tie-2 phosphorylation was similarly evaluated using normal human umbilical vein endothelial cells (HUVEC). […]

T1 sequence (Q02858 23-1122): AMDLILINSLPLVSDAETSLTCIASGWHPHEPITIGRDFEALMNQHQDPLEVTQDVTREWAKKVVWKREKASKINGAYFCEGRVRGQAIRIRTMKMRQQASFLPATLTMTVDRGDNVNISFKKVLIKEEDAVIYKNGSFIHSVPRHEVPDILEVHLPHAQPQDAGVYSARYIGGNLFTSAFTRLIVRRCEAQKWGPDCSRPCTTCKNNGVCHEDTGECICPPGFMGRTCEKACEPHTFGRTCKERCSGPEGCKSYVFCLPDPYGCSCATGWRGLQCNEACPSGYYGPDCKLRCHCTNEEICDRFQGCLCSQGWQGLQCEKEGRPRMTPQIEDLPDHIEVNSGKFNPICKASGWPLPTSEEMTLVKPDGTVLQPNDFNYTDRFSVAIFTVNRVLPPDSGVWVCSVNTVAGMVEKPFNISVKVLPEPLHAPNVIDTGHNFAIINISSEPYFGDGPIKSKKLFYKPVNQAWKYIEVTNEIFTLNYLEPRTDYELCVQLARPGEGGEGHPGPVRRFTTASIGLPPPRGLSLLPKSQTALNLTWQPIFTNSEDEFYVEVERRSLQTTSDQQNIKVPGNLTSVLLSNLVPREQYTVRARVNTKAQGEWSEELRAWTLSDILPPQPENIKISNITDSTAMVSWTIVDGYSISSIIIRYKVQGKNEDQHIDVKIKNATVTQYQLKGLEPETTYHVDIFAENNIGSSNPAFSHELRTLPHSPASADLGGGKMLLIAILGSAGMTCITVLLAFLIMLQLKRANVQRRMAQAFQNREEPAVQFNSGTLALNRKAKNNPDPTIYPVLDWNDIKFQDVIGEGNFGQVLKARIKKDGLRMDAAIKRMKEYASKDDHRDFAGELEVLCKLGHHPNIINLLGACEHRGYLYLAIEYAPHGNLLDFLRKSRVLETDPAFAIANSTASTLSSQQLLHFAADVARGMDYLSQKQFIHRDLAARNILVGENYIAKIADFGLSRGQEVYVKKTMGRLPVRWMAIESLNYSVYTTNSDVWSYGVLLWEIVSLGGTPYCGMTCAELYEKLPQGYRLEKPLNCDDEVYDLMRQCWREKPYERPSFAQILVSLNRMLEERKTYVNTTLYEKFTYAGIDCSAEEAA
T2 sequence (Q02763 23-1124): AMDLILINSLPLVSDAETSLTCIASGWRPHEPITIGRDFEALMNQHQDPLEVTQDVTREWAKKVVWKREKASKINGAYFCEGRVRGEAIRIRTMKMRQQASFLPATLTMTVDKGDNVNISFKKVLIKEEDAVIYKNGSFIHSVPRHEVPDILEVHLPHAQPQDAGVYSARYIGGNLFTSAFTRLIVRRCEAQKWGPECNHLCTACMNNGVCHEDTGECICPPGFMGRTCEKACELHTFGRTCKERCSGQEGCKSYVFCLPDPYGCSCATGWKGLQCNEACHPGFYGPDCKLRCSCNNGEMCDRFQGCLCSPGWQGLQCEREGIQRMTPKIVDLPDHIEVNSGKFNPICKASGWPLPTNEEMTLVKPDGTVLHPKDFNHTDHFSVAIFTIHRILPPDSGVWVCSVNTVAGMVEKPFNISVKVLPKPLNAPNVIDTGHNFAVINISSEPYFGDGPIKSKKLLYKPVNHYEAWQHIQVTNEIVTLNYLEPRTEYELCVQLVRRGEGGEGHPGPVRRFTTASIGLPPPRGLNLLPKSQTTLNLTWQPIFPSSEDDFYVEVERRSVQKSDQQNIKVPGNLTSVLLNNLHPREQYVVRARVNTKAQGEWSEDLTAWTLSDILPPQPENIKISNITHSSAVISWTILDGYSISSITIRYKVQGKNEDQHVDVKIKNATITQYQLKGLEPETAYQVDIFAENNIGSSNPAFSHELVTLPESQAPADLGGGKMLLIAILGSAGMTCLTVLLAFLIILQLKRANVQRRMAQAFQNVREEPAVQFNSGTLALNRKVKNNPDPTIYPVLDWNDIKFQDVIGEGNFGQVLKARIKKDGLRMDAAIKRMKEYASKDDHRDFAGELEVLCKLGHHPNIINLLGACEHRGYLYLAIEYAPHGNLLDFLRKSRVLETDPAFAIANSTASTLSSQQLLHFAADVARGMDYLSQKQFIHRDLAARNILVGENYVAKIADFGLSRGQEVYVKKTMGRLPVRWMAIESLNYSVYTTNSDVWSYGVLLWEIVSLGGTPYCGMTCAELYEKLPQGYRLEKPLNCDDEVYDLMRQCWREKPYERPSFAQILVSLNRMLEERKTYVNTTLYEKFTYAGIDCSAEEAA

Molecule: Cc1ccc(C(=O)Nc2ccc(S(=O)(=O)O)c3cc(S(=O)(=O)O)cc(S(=O)(=O)O)c23)cc1NC(=O)c1cccc(NC(=O)Nc2cccc(C(=O)Nc3cc(C(=O)Nc4ccc(S(=O)(=O)O)c5cc(S(=O)(=O)O)cc(S(=O)(=O)O)c45)ccc3C)c2)c1 [Suramin, reference compound]
- lumen formation (stained image) ([1]; cultured with VEGF-A 10 ng/ml, FIG. 4, cinnamon bark extract particularly at 300 ppm): lumen formation was determined to be inhibited

- Tie-2 phosphorylation (full-length murine TIE2): phosphorylation of Tie-2
- Tie-2 phosphorylation (Tie-2): phosphorylation of Tie-2
B1: Ang-1: Angiopoietin-1 (R&D System, 932-AN), positive control known to activate Tie-2 (protein, UniProt Q15389 16-498, looked up)
Angiopoietin-1: HIGCSNQRRSPENSGRRYNRIQHGQCAYTFILPEHDGNCRESTTDQYNTNALQRDAPHVEPDFSSQKLQHLEHVMENYTQWLQKLENYIVENMKSEMAQIQQNAVQNHTATMLEIGTSLLSQTAEQTRKLTDVETQVLNQTSRLEIQLLENSLSTYKLEKQLLQQTNEILKIHEKNSLLEHKILEMEGKHKEELDTLKEEKENLQGLVTRQTYIIQELEKQLNRATTNNSVLQKQQLELMDTVHNLVNLCTKEGVLLKGGKREEEKPFRDCADVYQAGFNKSGIYTIYINNMPEPKKVFCNMDVNGGGWTVIQHREDGSLDFQRGWKEYKMGFGNPSGEYWLGNEFIFAITSQRQYMLRIELMDWEGNRAYSQYDRFHIGNEKQNYRLYLKGHTGTAGKQSSLILHGADFSTKDADNDNCMCKCALMLTGGWWFDACGPSNLNGMFYTAGQNHGKLNGIKWHYFKGPSYSLRSTTMMIRPLDF
- angiogenesis inhibitory action (length and surface area of lumen formation) ([1]; angiogenesis induced by VEGF-A 10 ng/ml, FIGS. 5 and 6, cinnamon bark extract 10 to 300 ppm): did not have angiogenesis inhibitory action
